Source: the supplement of paper PMC10724198

Columns and labels:
[1] = system: Saccharomyces cerevisiae; assay: protein stability index of tFT-peptide fusion in wild type (PSI (0-1 scale)); higher = more stable (slower turnover); details: genetic background: wild type
Experimental: (§1)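 MPS profiling in S. cerevisiae of two library types built from selected 12-aa C-degron peptides (IN1, IN2, LN1, LN3, VN2, R1-R5, W1-W3, Atg1 and Rpa12 C-termini): saturation mutagenesis libraries and C-terminal +1 capping libraries (13 aa). Each peptide is fused to the C-terminus of a sfGFP-mCherry timer, after a GGGS linker. Cells are FACS-sorted into 8 mCherry/sfGFP bins and sequenced. PSI runs from 0 (unstable) to 1 (stable), measured once in wild type and in the das1Δ or doa10Δ background.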

[2] = system: Saccharomyces cerevisiae; assay: protein stability index of tFT-peptide fusion in deletion strain of DAS1 (PSI (0-1 scale)); higher = more stable (slower turnover)
Experimental: as §1
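For protein stability index of tFT-peptide fusion in deletion strain of DAS1 in this document: PSI is a weighted mean of each variant's read distribution over the sorted stability bins, computed only for variants having over 10 reads in total.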
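For protein stability index of tFT-peptide fusion in wild type in this document: PSI derived as read-weighted mean over the 8 sorting bins, only variants exceeding 10 total reads kept, mCherry placed adjacent to the peptide and sfGFP distal.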

Sequence	protein stability index [1]	protein stability index [2]
FSGRWTFRYWVN	0.0867	0.626
FSMRGTFRYWVN	0.106	0.608
FSMRHTFRYWVN	0.0782	0.588
FSMRQTFRYWVN	0.0909	0.558
FSMRWKFRYWVN	0.0643	0.577
FSMRWTARYWVN	0.0802	0.513
FSMRWTFRKWVN	0.314	0.634
FSMRWTFRYCVN	0.088	0.492
FSMRWTFRYMVN	0.0804	0.577
FSMRWTFRYWLN	0.0521	0.486
FSMRWTFRYWMN	0.07	0.485
FSMRWTFRYWSN	0.313	0.538
FSMRWTFRYWVE	0.502	0.473
FSMRWTFRYWVG	0.422	0.476
FSMRWTFRYWVNC	0.114	0.508
FSMRWTFRYWVNI	0.134	0.527
FSMRWTFRYWVT	0.225	0.469
FSMRWTFRYWYN	0.149	0.48
FSMRWTFYYWVN	0.0564	0.418
FSMRWTWRYWVN	0.0598	0.625

Sequence	protein stability index [1]	protein stability index [2]
FSPRWTFRYWVN	0.075	0.59
FSSRWTFRYWVN	0.1	0.604
FVVYLSCVACIN	0.0218	0.0242
FWMRWTFRYWVN	0.0402	0.379
HSMRWTFRYWVN	0.0543	0.586
HVVYLSCVACIN	0.0139	0.0397
IKILRQKMNHQN	0.177	0.659
KKEKKGQKQKIN	0.0774	0.578
KKFKKGQKQKIN	0.129	0.575
KKHKCGQKQKIN	0.0807	0.582
KKHKKAQKQKIN	0.06	0.601
KKHKKCQKQKIN	0.0395	0.548
KKHKKGQKAKIN	0.241	0.611
KKHKKGQKGKIN	0.563	0.584
KKHKKGQKKKIN	0.523	0.576
KKHKKGQKMKIN	0.105	0.583
KKHKKGQKQIIN	0.642	0.584
KKHKKGQKQKIH	0.114	0.662
KKHKKGQKQKINN	0.231	0.659
KKHKKGQKQKINP	0.658	0.663

Sequence	protein stability index [1]	protein stability index [2]
KKHKKGQKQKINQ	0.644	0.664
KKHKKGQKQKINR	0.644	0.657
KKHKKGQKQKIP	0.336	0.638
KKHKKGQKQKQN	0.264	0.583
KKHKKGQKTKIN	0.435	0.619
KKHKKGQYQKIN	0.0851	0.569
KKHMKGQKQKIN	0.103	0.551
KKHRKGQKQKIN	0.109	0.678
KKHTKGQKQKIN	0.129	0.622
KSLAASFWRVVG	0.112	0.673
LDVYLSCVACIN	0.134	0.231
LKALRQKMNHQN	0.213	0.672
LKFLRQKMNHQN	0.166	0.697
LKHKKGQKQKIN	0.094	0.576
LKICRQKMNHQN	0.254	0.722
LKIFRQKMNHQN	0.191	0.669
LKIHRQKMNHQN	0.226	0.673
LKIIRQKMNHQN	0.204	0.718
